Laboratory results reported in US20220251217A1 (University of California, published 2022).

T1: CD72-Fc (CD72 extracellular domain, aa 117-359, fused to a biotinylated human Fc domain) (human, UniProt P21854 117-359, biotinylated (on the Fc domain; site not stated))
T1 construct: range 117-359; Expressed in mammalian cells; also called CD72-ECD-Fc protein; recombinant CD72-Fc fusion protein; not shown: human Fc domain
T1 sequence (looked up): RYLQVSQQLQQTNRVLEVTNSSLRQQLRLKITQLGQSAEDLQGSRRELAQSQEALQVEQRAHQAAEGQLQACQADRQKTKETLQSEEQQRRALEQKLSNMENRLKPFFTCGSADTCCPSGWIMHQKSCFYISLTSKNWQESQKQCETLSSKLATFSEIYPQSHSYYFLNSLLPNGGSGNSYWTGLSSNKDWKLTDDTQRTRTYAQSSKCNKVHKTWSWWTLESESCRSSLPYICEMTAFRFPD

T2: CD72-Fc (CD72 extracellular domain, aa 117-359, fused to a biotinylated human Fc domain) (human, UniProt P21854 117-359, biotinylated (on the Fc domain; site not stated))
T2 chain: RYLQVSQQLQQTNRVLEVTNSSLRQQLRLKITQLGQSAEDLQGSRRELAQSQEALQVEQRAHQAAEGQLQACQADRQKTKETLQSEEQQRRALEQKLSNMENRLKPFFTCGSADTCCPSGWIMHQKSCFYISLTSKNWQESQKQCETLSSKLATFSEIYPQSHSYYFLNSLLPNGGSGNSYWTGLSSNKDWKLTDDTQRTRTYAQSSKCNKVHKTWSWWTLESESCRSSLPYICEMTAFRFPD


How the values were obtained:
[1] = target: T1, CD72-Fc (CD72 extracellular domain, aa …); test: on-yeast affinity measurement, flow cytometry, titration of CD72-Fc
Excerpt: FIG. 4a-e: Isolation of high-affinity CD72 nanobodies with yeast display (a) Schematic of workflow for in vitro anti-CD72 nanobody selection using yeast display. (b) Structure models of the recombinant Fc-fusion proteins used to perform yeast display selections. The Fc protein on the left was used to negatively select potential off-target nanobodies while the CD72-Fc protein (CD72 extracellular domain fused to a human Fc domain) was used to perform positive selection steps to isolate CD72-specific nanobodies (c) Schematic displaying the nanobody yeast display selection strategy for each MACS and FACS selection round to enrich for CD72-specific nanobody binders. Two rounds of MACS followed by four rounds of FACS with decreasing concentration of CD72 antigen produced high affinity anti-CD72 nanobodies. (d) On-yeast binding of recombinant CD72-Fc fusion protein for CD72-selected nanobodies Nb.B5 (nanobody sequence SEQ ID NO:2) and Nb.C2 (nanobody sequence SEQ ID NO:1) expressed on yeast to determine estimated binding affinities. Kd determined by curve fitting using non-linear least squares regression. (e) Flow cytometry plots of yeast clone Nb.C2 binding to 10 nM CD72-ECD-Fc protein (left) or 10 nM Fc protein (right). […]

[2] = target: T2, CD72-Fc (CD72 extracellular domain, aa …); test: on-yeast binding (yeast display flow cytometry)

binding result [1]	Kd [2] [nM]	Binder
binds	1.5	Nb.C2 (VHH, also called yeast clone Nb.C2) VHH: QVQLQESGGGLVQAGGSLRLSCAASGTIFDWYSMGWYRQAPGKERELVAGIDTGANTYYADSVKGRFTISRDNAKNTVYLQMNSLKPEDTAVYYCAAHDDGDPWHVYWGQGTQVTVSS
binds	1	Nb.B5 (VHH) VHH: QVQLQESGGGLVQAGGSLRLSCAASGTIFPVDYMGWYRQAPGKERELVAGINYGSNTYYADSVKGRFTISRDNAKNTVYLQMNSLKPEDTAVYYCAAWQPEGYAVDFYHPYWGQGTQVTVSS
